Experimental data published in patent publication US20090123474A1, “COMBINATION OF ANGIOPOIETIN-2 ANTAGONIST AND OF VEGF-A, KDR AND/OR FLTL ANTAGONIST FOR TREATING CANCER” (ASTRAZENECA AB, priority 2005, published 2009).

How the values were obtained:
[1] = tested on: human LoVo colon tumour xenografts; type: in vivo; details: 3.19.3 10 mg/kg 2×wk i.p., Zactima 50 mg/kg/day p.o.
Protocol: The anti-tumor activity of monoclonal antibody 3.19.3 was evaluated in the LoVo xenograft model of colorectal cancer. Briefly, LoVo cells were cultured in flasks as routine until the cells reached sub-confluence. Immunodeficient 8 week old male NCr nude mice were used. Cell suspensions containing 3×10^6 cells were injected subcutaneously into the right flank of the mice, and after the tumour volume reached 200 mm^3, the mice were randomized in groups and the treatments were initiated. mAb 3.19.3 10 mg/kg in saline was injected intraperitoneally, twice per week for 2 weeks. Zactima™ was treated peroral daily at doses ranging from 25 to 50 mg/kg in water containing 1% Tween80. The dimensions of each tumor were measured twice per week. The volume of the tumor was calculated as: Volume=Length×(Width)^2×0.5 (cm^3).

[2] = tested on: human HT29 colon tumour xenografts; experiment: HT29 xenograft efficacy study; type: in vivo; details: AZD2171 1.5 mg/kg/day p.o. d 0-27, 3.19.3 10 mg/kg i.p. day 0, 3, 7, 10, 14, 17, 21 and 24
Protocol: The efficacy of mAb 3.19.3 in combination with AZD2171 was evaluated in human HT29 xenografts. Briefly, 5×10^6 HT29 tumour cells in 0.1 ml of serum free Roswell Park Memorial Institute (RPMI)-1640 medium were injected subcutaneously into the flanks of 60 athymic (nu/nu genotype) mice. When tumours reached a volume of 200 to 400 mm^3 (9-10 days), mice were randomized into groups (8 per group) and treatment started (day 0).
The control group (Group 1) received a daily oral (p.o.) administration of vehicle only for 28 consecutive days (day 0-27). Group 2 treatment consisted of a daily p.o. administration of AZD2171 alone at 1.5 mg/kg/administration for 28 consecutive days (day 0-27). AZD2171 was prepared as a suspension in 1% polysorbate 80 (i.e. a 1% (v/v) solution of polyoxyethylene (20) sorbitan mono-oleate in deionised water). […]
Tumour volumes (mm^3) were assessed at least twice weekly by bilateral Vernier caliper measurement and, taking length to be the longest diameter across the tumor and width the corresponding perpendicular, calculated using the formula (π/6)×(length×width)×√ (length×width). Growth inhibition from the start of treatment was assessed by comparison of the differences in tumor volume between control and treated groups. […] For all mice, the tumours were excised and weights recorded upon termination of the study.

Angiopoietin-1 = target: T1, Angiopoietin-1 (Homo sapiens, UniProt Q15389); experiment: Biacore (SPR) medium resolution screen of mAb binding to Angiopoietin-1
T1 construct: purchased R&D Systems 293-AN-025/CF
T1 sequence (Q15389 16-498): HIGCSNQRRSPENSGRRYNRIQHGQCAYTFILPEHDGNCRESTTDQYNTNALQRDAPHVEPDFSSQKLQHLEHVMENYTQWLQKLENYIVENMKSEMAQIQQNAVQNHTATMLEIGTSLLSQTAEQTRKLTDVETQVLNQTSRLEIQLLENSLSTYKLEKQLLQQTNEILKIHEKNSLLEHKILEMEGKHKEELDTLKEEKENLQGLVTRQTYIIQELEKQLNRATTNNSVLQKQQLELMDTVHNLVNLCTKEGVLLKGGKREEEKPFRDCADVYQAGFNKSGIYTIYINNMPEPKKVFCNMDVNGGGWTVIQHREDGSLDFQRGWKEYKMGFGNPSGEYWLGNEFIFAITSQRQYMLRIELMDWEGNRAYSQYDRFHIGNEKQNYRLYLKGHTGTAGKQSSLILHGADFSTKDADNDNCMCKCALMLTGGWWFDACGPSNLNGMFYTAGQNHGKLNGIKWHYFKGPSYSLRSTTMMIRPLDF
Protocol: The cross-reactivity of the antibody to Angiopoietin-1 was further investigated by measuring the affinity of the mAbs to Angiopoietin-1. Instead of immobilizing Angiopoietin-1, as described in ELISA-based counter-binding, the mAbs were immobilized to the CM5 Biacore chips, and Angiopoietin-1 in solution was injected for the determination of the on-rate and off-rate. Six mAbs; 3.3.2, 3.31.2, 5.16.3, 5.86.1, 5.88.3 and 3.19.3 were tested.
Label-free surface plasmon resonance (SPR), or Biacore 2000 instrumentation, was utilized to measure antibody affinity to Angiopoietin-1. For this purpose, a high-density goat α-human antibody surface over a CM5 Biacore chip was prepared using routine amine coupling. For developmental experiments, purified mAbs (clones 3.3.2, 3.31.2, 5.16.3, 5.86.1, 5.88.3 and 3.19.3) were diluted to approximately 2.5-3.5 μg/ml in HBS-P running buffer containing 100 μg/ml BSA. The capture level for each mAb was approximately 150 RU. A 5-minute wash followed each capture cycle to stabilize the mAb baseline. A single Angiopoietin-1 sample diluted to 87.4 nM in the running buffer was injected for one minute over all capture surfaces. […] This experiment was repeated by increasing the mAb capture levels to well over 500-600 RU and injecting 380 nM Angiopoietin-1 for one minute. Angiopoietin-1 was again found to bind mAb 3.19.3.

B1: mAb 3.19.3: fully human anti-Angiopoietin-2 monoclonal antibody, variable regions SEQ ID NO: 5-8; also binds Angiopoietin-1 (antibody, V domains shown)
VH: QVQLVESGGGVVQPGRSLRLSCAASGFTFTNYGMHWGRQAPGKGLEWVAVISHDGNNKYYVDSVKGRFTISRDNSKNTLYLQMNSLRAEDTAVYYCAREGIDFWSGLNWFDPWGQGTLVTVSSA
VL: EIVLTQSPGTLSLSPGERATLSCRASQSITGSYLAWYQQKPGQAPRLLICGASSWATGIPDRFSGSGSGTDFTLTISRLEPEDFAVYYCQQYSSSPITFGQGTRLEIKR
Which tumour inhibition [1] does the source give for B1 here?
The tumour inhibition was 48%.

What about the “Inhibition of Control Tumour Growth Day 28” value [2] of the same molecule?
The value was 40%.

What about the “binding of Angiopoietin-1 to captured mAb” value (Angiopoietin-1; 87.4 nM Angiopoietin-1, capture level approximately 150 RU) of the same molecule?
The value was “found to bind”.

And the “binding of Angiopoietin-1 to captured mAb” value (Angiopoietin-1; 380 nM Angiopoietin-1, capture levels over 500-600 RU)?
The value was “found to bind”.
